Laboratory results reported in patent publication US20060093617A1.
Like-named read-outs stand apart in the source and are kept apart here.

Key:
HLA-B0702 (human) [1] = target: HLA-B0702 (human)
HLA-A0201 (human) [2] = assay: competition with 125I-labelled probe peptide, purified HLA
HLA-A*0201 (human) [3] = assay: competition with radiolabeled probe peptide for purified soluble HLA-A*0201
HLA-A0201 (human) [4] = assay: competition vs 125I probe peptide, purified HLA-A*0201
HLA-DRB1*0101 (human) = assay: competition vs 125I-labelled probe peptide, purified HLA-DR
HLA-A*0201 (human) [5] = assay: competition binding, purified soluble HLA, 125I-labelled probe peptide
HLA-B*0702 (human) = assay: competition with 125I-labeled probe peptide, purified HLA
HLA-B0702 (human) [6] = assay: competition vs 125I probe peptide, purified HLA
[7] = remark: other sources report otherwise

TPAETSVRL (modifications not checked) was tested. Which Ki (HLA-B0702 (human) [1]) did it give?
Its Ki is under 1 µM.

How did the Ki (HLA-A0201 (human) [2]; [7]) turn out when DLMGYIPLV (modifications not checked) was run?
Its Ki is 0.036 µM.

And the IC50 (HLA-A*0201 (human) [3]; [7])?
The IC50 was 0.083 µM.

How did the Ki (HLA-A0201 (human) [2]) turn out when CLVDYPYRL (modifications not checked) was run?
Its Ki is 0.437 µM.

And the IC50 (HLA-A*0201 (human) [3])?
The IC50 was 0.437 µM.

MALYDVVST (modifications not checked) was tested. Which Ki (HLA-A0201 (human) [4]) did it give?
Its Ki is 1.14 µM.

How did the Ki (HLA-Cw0602 (human)) turn out when RKPARLIVF (modifications not checked) was run?
The Ki was 8.28 µM.

Which Ki (HLA-Cw0602 (human); [7]) does the source give for NAVAYYRGL (modifications not checked) here?
Its Ki is 10.8 µM.

Which IC50 (HLA-DRB1*0101 (human); [7]) does the source give for TTIMAKNEVFCVQPE (modifications not checked) [… (SEQ ID NO 2226)] here?
The IC50 was 3.73 µM.

RAAVCTRGVAKAVDF (modifications not checked) [… (SEQ ID NO 2199)] was tested. Which IC50 (HLA-DRB1*0101 (human)) did it give?
The IC50 was 0.619 µM.

Which IC50 (HLA-A*0201 (human) [5]) does the source give for NIIMYAPTL (modifications not checked) here?
Its IC50 is 0.07 µM.

What about the Ki (HLA-A0201 (human) [4]) of the same binder?
Its Ki is 0.07 µM.

How did the IC50 (HLA-B*0702 (human)) turn out when APLGGAARA (modifications not checked) was run?
The IC50 was 0.115 µM.

And the Ki (HLA-B0702 (human) [6])?
The Ki was 0.115 µM.

How did the IC50 (HLA-DRB1*0101 (human); [7]) turn out when ADLMGYIPLVGAPLG (modifications not checked) [… (SEQ ID NO 2105)] was run?
The IC50 was 8.33 µM.

Which Ki (HLA-A0301 (human)) does the source give for AAYAAQGYK (modifications not checked) here?
The Ki was under 1 µM.

Which IC50 (HLA-B*0702 (human)) does the source give for LPRRGPRLG (modifications not checked) here?
Its IC50 is 0.124 µM.

How did the Ki (HLA-B0702 (human) [6]) turn out when ATLGFGAYM (modifications not checked) was run?
The Ki was 13 µM.

Which IC50 (HLA-DRB1*0101 (human)) does the source give for GVNYATGNLPGCSFS (modifications not checked) [… (SEQ ID NO 2155)] here?
Its IC50 is 4.56 µM.

How did the Ki (HLA-B0702 (human) [1]; [7]) turn out when SPGQRVEFL (modifications not checked) was run?
The Ki was under 1 µM.

With NLPGCSFSI (modifications not checked) as the binder, how does the Ki (HLA-A2402 (human); [7]) read?
The Ki was 0.008 µM.

And the Ki (HLA-A0201 (human) [4]; [7])?
The Ki was 0.07 µM.

What about the IC50 (HLA-A*0201 (human) [3]; [7]) of the same binder?
Its IC50 is 0.083 µM.

ASCLRKLGVPPLRVW (modifications not checked) [… (SEQ ID NO 2110)] was tested. Which IC50 (HLA-DRB1*0101 (human)) did it give?
The IC50 was 0.0049 µM.

With VTLTHPITK (modifications not checked) as the binder, how does the Ki (HLA-A0301 (human); [7]) read?
Its Ki is under 1 µM.

Which Ki (HLA-Cw0602 (human)) does the source give for YRRCRASGV (modifications not checked) here?
The Ki was 0.634 µM.

YQATVCARA (modifications not checked) was tested. Which IC50 (HLA-A*0201 (human) [5]) did it give?
The IC50 was 0.02 µM.

And the Ki (HLA-A0201 (human) [4])?
The Ki was 0.02 µM.

How did the Ki (HLA-Cw0602 (human)) turn out when VAYYRGLDV (modifications not checked) was run?
The Ki was 0.231 µM.

Which IC50 (HLA-DRB1*0101 (human)) does the source give for GYKVLVLNPSVAATL (modifications not checked) [… (SEQ ID NO 2157)] here?
Its IC50 is 0.0084 µM.

What does the source list for ALAHGVRVL (modifications not checked)?
Ki (HLA-A0201 (human) [2]; [7]): 0.627 µM; Ki (HLA-B0702 (human) [6]; [7]): 7.95 µM

APPPSWDQM (modifications not checked) was tested. Which Ki (HLA-B0702 (human) [1]; [7]) did it give?
Its Ki is under 1 µM.

GLTHIDAHF (modifications not checked) was tested. Which Ki (HLA-A2402 (human)) did it give?
Its Ki is 0.003 µM.

Which Ki (HLA-A0201 (human) [4]) does the source give for TLWARMILM (modifications not checked) here?
The Ki was 0.008 µM.

With VVSTLPQAV (modifications not checked) as the binder, how does the Ki (HLA-A0201 (human) [4]) read?
Its Ki is 0.884 µM.

With YLFNWAVRT (modifications not checked) as the binder, how does the IC50 (HLA-A*0201 (human) [5]) read?
The IC50 was 0.029 µM.

What about the Ki (HLA-A0201 (human) [4]) of the same binder?
The Ki was 0.029 µM.

With YIPLVGAPL (modifications not checked) as the binder, how does the Ki (HLA-A0201 (human) [4]; [7]) read?
The Ki was 0.077 µM.

And the IC50 (HLA-A*0201 (human) [3]; [7])?
The IC50 was 0.337 µM.

With GRKPARLIV (modifications not checked) as the binder, how does the Ki (HLA-Cw0602 (human)) read?
The Ki was 2.04 µM.

How did the IC50 (HLA-DRB1*0101 (human)) turn out when PQTFQVAHLHAPTGS (modifications not checked) [… (SEQ ID NO 2192)] was run?
The IC50 was 0.022 µM.

With KVLVLNPSV (modifications not checked) as the binder, how does the Ki (HLA-A0201 (human) [4]) read?
The Ki was 0.05 µM.

And the IC50 (HLA-A*0201 (human) [3])?
The IC50 was 0.05 µM.

How did the IC50 (HLA-DRB1*0101 (human); [7]) turn out when GARLVVLATATPPGS (modifications not checked) [… (SEQ ID NO 2137)] was run?
Its IC50 is 0.173 µM.

For GSSYGFQYSPGQRVE (modifications not checked) [… (SEQ ID NO 2153)], which IC50 (HLA-DRB1*0101 (human); [7]) is on record?
The IC50 was 0.011 µM.

For APTLWARMI (modifications not checked), which Ki (HLA-B0702 (human) [1]; [7]) is on record?
The Ki was under 1 µM.

With DVVVVATDALMTGYT (modifications not checked) [… (SEQ ID NO 2125)] as the binder, how does the IC50 (HLA-DRB1*0101 (human); [7]) read?
Its IC50 is 0.456 µM.

For ASQLSAPSLKATCTT (modifications not checked) [… (SEQ ID NO 2111)], which IC50 (HLA-DRB1*0101 (human)) is on record?
The IC50 was 0.329 µM.

For FLLALLSCL (modifications not checked), which IC50 (HLA-A*0201 (human) [3]; [7]) is on record?
Its IC50 is 0.136 µM.

For WESVFTGLTHIDAHF (modifications not checked) [… (SEQ ID NO 2245)], which IC50 (HLA-DRB1*0101 (human); [7]) is on record?
The IC50 was 0.122 µM.

With SKGWRLLAPITAYAQ (modifications not checked) [… (SEQ ID NO 2213)] as the binder, how does the IC50 (HLA-DRB1*0101 (human)) read?
Its IC50 is 0.0004 µM.

With IIMYAPTLW (modifications not checked) as the binder, how does the Ki (HLA-A2402 (human)) read?
Its Ki is 0.0008 µM.

YAAQGYKVLV (modifications not checked) was tested. Which Ki (HLA-Cw0602 (human)) did it give?
The Ki was 9.21 µM.

Which results are given for GMFDSSVLC (modifications not checked)?
Ki (HLA-A0201 (human) [4]): 0.071 µM; IC50 (HLA-A*0201 (human) [3]): 0.114 µM

With DLCGSVFLV (modifications not checked) as the binder, how does the Ki (HLA-A0201 (human) [2]; [7]) read?
The Ki was 0.789 µM.

For RLYIGGPLT (modifications not checked), which Ki (HLA-A0201 (human) [4]) is on record?
Its Ki is 0.536 µM.

Which IC50 (HLA-A*0201 (human) [3]) does the source give for QIVGGVYLL (modifications not checked) here?
The IC50 was 0.228 µM.

IMACMSADL (modifications not checked) was tested. Which IC50 (HLA-A*0201 (human) [5]; [7]) did it give?
The IC50 was 0.066 µM.

What about the Ki (HLA-A0201 (human) [4]; [7]) of the same binder?
The Ki was 0.066 µM.

RMILMTHFF (modifications not checked) was tested. Which Ki (HLA-A2402 (human); [7]) did it give?
The Ki was 0.006 µM.

LAGYGAGVAGALVAF (modifications not checked) [… (SEQ ID NO 2166)] was tested. Which IC50 (HLA-DRB1*0101 (human); [7]) did it give?
The IC50 was 0.137 µM.

What does the source list for APTGSGKST (modifications not checked)?
IC50 (HLA-B*0702 (human)): 0.37 µM; Ki (HLA-B0702 (human) [6]): 0.37 µM

GRRGIYRFV (modifications not checked) was tested. Which Ki (HLA-Cw0602 (human)) did it give?
The Ki was 0.576 µM.

With VILDSFDPL (modifications not checked) as the binder, how does the Ki (HLA-A2402 (human)) read?
Its Ki is over 20 µM.
